{
  "source": "patent US20170119913A1",
  "about": "(3B PHARMACEUTICALS, published 2017)",
  "binders": {"B1": {"name": "MIP-1alpha (ligand, UniProt P10147 24-92, looked up)", "chain": "SLAADTPTACCFSYTSRQIPQNFIADYFETSSQCSKPGVIFLTKRSRQVCADPSEEWVQKYVSDLELSA"}},
  "molecular_target": "T1, CCR1 (h), C-C chemokine receptor type 1 (human (printed as (h)), UniProt P32246 1-355)",
  "T1 sequence (looked up)": "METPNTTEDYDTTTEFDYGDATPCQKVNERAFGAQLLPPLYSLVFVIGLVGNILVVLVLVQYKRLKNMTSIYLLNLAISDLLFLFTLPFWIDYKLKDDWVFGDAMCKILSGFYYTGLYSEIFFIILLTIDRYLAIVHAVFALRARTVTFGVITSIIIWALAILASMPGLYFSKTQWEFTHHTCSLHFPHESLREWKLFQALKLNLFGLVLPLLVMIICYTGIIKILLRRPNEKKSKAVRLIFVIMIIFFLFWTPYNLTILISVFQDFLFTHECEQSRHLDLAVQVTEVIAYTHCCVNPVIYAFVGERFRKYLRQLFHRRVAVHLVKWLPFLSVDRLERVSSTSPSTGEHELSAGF",
  "assay": "Cerep ExpresSProfile radioligand competition binding, reference compound (agonist radioligand)",
  "data": [
    {"binder": "B1", "values": [
      {"measurement": "Ki", "value": 0.041, "unit": "nM"}
    ]}
  ]
}
